Changes are numbered by the printed parent chain. Names and notes keep the numbering of the source.
B1: Skp(WT), seventeen kilodalton protein, periplasmic chaperone of Escherichia coli (natural protein, E. coli, UniProt P0AEU7 21-161, looked up)
chain: ADKIAIVNMGSLFQQVAQKTGVSNTLENEFKGRASELQRMETDLQAKMKKLQSMKAGSDRTKLEKDVMAQRQTFAQKAQAFEQDRARRSNEERGKLVTRIQTAVKSVANSQDIDLVVDANAVAYNSSDVKDITADVLKQVK
notes: Stands in a monomer-trimer equilibrium; the active form is the homotrimer; The thrombin-cleavable His6-tag of pET28b was not cleaved; Isotope-labelled for NMR in some samples; source: E. coli BL21-(λ DE3)-Lemo, purified (Ni-NTA, SEC); not shown: His6, N-terminal, kept
B2: Skp(A103L) (natural protein, E. coli, UniProt P0AEU7 21-161, looked up)
chain: B1 chain with A103L
notes: Monomer-trimer equilibrium essentially as the wild type; source: E. coli BL21-(λ DE3)-Lemo, purified (Ni-NTA, SEC); not shown: His6, N-terminal, kept
B3: Skp(A103R) (natural protein, E. coli, UniProt P0AEU7 21-161, looked up)
chain: B1 chain with A103R
notes: Monomer-trimer equilibrium shifted toward the monomer; source: E. coli BL21-(λ DE3)-Lemo, purified (Ni-NTA, SEC); not shown: His6, N-terminal, kept
B4: Skp(A108L) (natural protein, E. coli, UniProt P0AEU7 21-161, looked up)
chain: B1 chain with A108L
notes: Monomer-trimer equilibrium strongly shifted toward the monomer; also called Skp(108L); source: E. coli BL21-(λ DE3)-Lemo, purified (Ni-NTA, SEC); not shown: His6, N-terminal, kept
B5: Skp(A108R) (natural protein, E. coli, UniProt P0AEU7 21-161, looked up)
chain: B1 chain with A108R
notes: Fully monomeric up to 1 mM; source: E. coli BL21-(λ DE3)-Lemo, purified (Ni-NTA, SEC); not shown: His6, N-terminal, kept

Key:
[1] = target: Skp(V117P) (E. coli) (UniProt P0AEU7); test: solution NMR (signal intensities of monomer and trimer) + SEC-MALS; fraction of monomer against total Skp concentration, 25°C, 20 mM MES pH 6.5, 150 mM NaCl; monomer to trimer; C0.5 is the protein concentration at which half of the molecules are monomeric
[2] = target: tOmpA, the eight-stranded transmembrane domain of OmpA (residues 1 to 177); test: NMR quantification of Skp-bound tOmpA after complex assembly (holdase assay); excess of denatured [U-2H,15N]-tOmpA added dropwise to unlabeled Skp in 20 mM MES pH 6.5, 150 mM NaCl, aggregate spun down, tOmpA signals in 2D [15N,1H]-TROSY of the supernatant, 37°C, normalised to Skp(WT)
[3] = target: the molecule itself; test: SEC-MALS; Skp variants alone, elution concentration ≃80 μM, 25°C, 20 mM MES pH 6.5, 150 mM NaCl; monomer to trimer
[4] = target: P0AEU7; test: as above
[5] = target: the molecule itself; test: as above; remark: listed apart in the source
[6] = target: the molecule itself; test: solution NMR (signal intensities of monomer and trimer) + SEC-MALS; fraction of monomer against total Skp concentration, 25°C, 20 mM MES pH 6.5, 150 mM NaCl; monomer to trimer; C0.5 is the protein concentration at which half of the molecules are monomeric
[7] = target: the molecule itself; test: as above; remark: listed apart in the source
[8] = target: P0AEU7; test: solution NMR (signal intensities of monomer and trimer); Skp variants alone at 37°C, 20 mM MES pH 6.5, 150 mM NaCl; monomer to trimer; conditions: other: solution NMR (signal intensities of monomer and trimer)

| Molecule | C0.5 [1] [µM] | Skp activity (% of WT), amount of Skp-bound tOmpA [2] | stoichiometry N [3] | Monomer (%) at c ≃ 80 μM [4] [%] | Trimer (%) at c ≃ 80 μM [5] [%] | C0.5 [6] [µM] | stoichiometry N [7] | monomer (%) at 1 mM, 37°C [8] | monomer (%) at 37°C [8] |
| --- | --- | --- | --- | --- | --- | --- | --- | --- | --- |
| Skp(V117P) (from UniProt P0AEU7 21-161) (natural protein) | > 1000 | 1 % of WT | – | – | – | – | – | – | – |
| B1 | – | 100 % of WT | 3 | 3 | 97 | 1.5 | – | – | – |
| B2 | – | 100 % of WT | – | 6 | 94 | 1.5 | 3 | – | – |
| B3 | – | 87 % of WT | – | 14 | 86 | 7 ± 2 | 3 | – | – |
| B4 | – | 55 % of WT | – | 53 | 47 | 80 ± 20 | 3 | around 95% monomer at a concentration of 1 mM | more than 80% in its monomeric state |
| B5 | – | 1 % of WT | – | – | – | > 1000 | – | – | – |

From publication PMC7577714, “Regulation of chaperone function by coupled folding and oligomerization” (Science Advances, 2020)
